Here are results for 25 variants from the supplement of paper PMC7125110.

± gives the standard error. This sample holds only a part of the variants without activity.

B1: glmS ribozyme (parent)
chain: AUAAAAGCGCCAGAACUACAGAAAUGUAGUUGACGAGGAGGAGGUUUAUCGAAUUUUCGGCGGAUGCCUCCAAA

What all share (conditions): with glucosamine-6-phosphate
Series [1] covers variants of B1. Nature of the series: self-cleavage kobs at 640 uM GlcN6P; higher = faster cleavage; RNA array. The procedure, abridged: (§1)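 Barcoded ribozyme variants were transcribed in situ on sequenced MiSeq chips by E. coli RNA polymerase. At 37 °C, a hybridised Cy3 probe tracked them while glucosamine-6-phosphate (40 μM to 10 mM) in HEPES/KCl/Mg(OAc)2 buffer flowed in and tiles were imaged over ~14 h. Per-tile medians of signals normalised to baseline and to non-cleaving reference variants were fit to one- or two-exponential decays, giving kobs. kcat and KM came from weighted Michaelis–Menten fits across concentrations.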

Variants of B1 are the subject of series [2]. Nature of the series: self-cleavage kobs at 2500 uM GlcN6P; higher = faster cleavage; RNA array. The procedure, abridged:
as §1

Series [3] covers variants of B1. The experiment in a line: self-cleavage kobs at 10000 uM GlcN6P; higher = faster cleavage; RNA array. A digest of the protocol: as §1

Regarding AUAAAUGCGCCGGUACUACAGAAAUGUAGUUGACGAGGAGGAGGUUUAUCGAAUUUUCGGCGGAUGCCUCCAAA, in the series with glucosamine-6-phosphate [1], the “self-cleavage kobs at 640 uM GlcN6P” value was less than 1e-05 s⁻¹. On to AUAAAAGCGCCAGAACUACAGAAAUGUAGUUGAGGAGGAGGAGGUUUAUCGAAUUUUCGGUGGAUGCCUGCAAA, for which the “self-cleavage kobs at 640 uM GlcN6P” value in the series with glucosamine-6-phosphate [1] is less than 1e-05 s⁻¹. Also, in the series with glucosamine-6-phosphate [2], the “self-cleavage kobs at 2500 uM GlcN6P” value was less than 1e-05 s⁻¹. For AUAAAAGCGCCAGAUCUACAGAAAUGUAGUACACGAGGAGGAGGUUUAUCGAAUUUUCGGCGGAUGCCUCCAAA, the “self-cleavage kobs at 640 uM GlcN6P” value with glucosamine-6-phosphate [1] was determined as 4.96e-05 ± 2e-05 s⁻¹. Moreover, the “self-cleavage kobs at 2500 uM GlcN6P” value in the series with glucosamine-6-phosphate [2] is 6.02e-05 ± 2.5e-05 s⁻¹.

For the variant AUAAAAGCGCCAGAACUACAGAAAUGUAAUUGACGAGAAGGACGUUUAUCGAAUUUUCGGCGGAUGCCUCCAAA, the “self-cleavage kobs at 640 uM GlcN6P” value with glucosamine-6-phosphate [1] was less than 1e-05 s⁻¹. On the same count and under the same terms, for AUAAAAGCGCGAGAGCUACAGAAAUGUAGUUGACGAGGAGGAGGUUUAUGGAAUUUUCGGCGGAUUCCUCCAAA the value was 0.000661 ± 0.00032 s⁻¹.

Take AUAAAAGCGCCAGAACUACAGAAAUGUAGUUGAGGAGGAGGAGGUUUAUCGAAUUUUCGGCGAAUGACUCCAAA: the “self-cleavage kobs at 640 uM GlcN6P” value in the series with glucosamine-6-phosphate [1] is less than 1e-05 s⁻¹. Moreover, the “self-cleavage kobs at 2500 uM GlcN6P” value with glucosamine-6-phosphate [2] was less than 1e-05 s⁻¹.

In the case of AUAAAAGCGCCAGAACUACAGAAAUGUAGUUGAAGAGGCGAAGGUUUAUCGAAUUUUCGGCGGAUUCCUCCAAA, the “self-cleavage kobs at 640 uM GlcN6P” value with glucosamine-6-phosphate [1] was less than 1e-05 s⁻¹. Besides, the “self-cleavage kobs at 2500 uM GlcN6P” value with glucosamine-6-phosphate [2] was less than 1e-05 s⁻¹. On to AUAAAAGCGCCCGAACUACAGAAAUGUACUUGACGAAGAGGAGGUUUAUCGAAUAUUCGGCGGAUGCCUCCAAA, for which the “self-cleavage kobs at 640 uM GlcN6P” value with glucosamine-6-phosphate [1] is 4.45e-05 ± 1.9e-05 s⁻¹. Still for that read-out and setting: for AUAAAAGCGCCAGAACUACAGAAAUGUAGUUGACGAGCAGGUGGUUUAUCGAAUUUUCGGCGAAUGCUUCCAAA the value was less than 1e-05 s⁻¹; for AUAAAAGCGCCAGAAGUACAGAAAUGUAGUUGCCGAGUAGGAGGUUUAUCGUAUUUUCGGCGGAUGCCUCCAAA, less than 1e-05 s⁻¹. For the variant AUAAAAGGGCCAGAACUACAGAAAUGUAGUCGACGAGAAGGAGGUUUAUCGAAUUUUCGGCGGAUGCCUCCAAA, in the series with glucosamine-6-phosphate [1], the “self-cleavage kobs at 640 uM GlcN6P” value was less than 1e-05 s⁻¹. In addition, the “self-cleavage kobs at 10000 uM GlcN6P” value with glucosamine-6-phosphate [3] was less than 1e-05 s⁻¹. As to AUAAAAGCGCCACAACUACAGAAAUGUAGUUGACGAGGAGGAGGUUUAUCAAAUUUUCGGCGGAUGCCGCCAAA, the “self-cleavage kobs at 640 uM GlcN6P” value in the series with glucosamine-6-phosphate [1] was 4.99e-05 ± 1.8e-05 s⁻¹. Take AUAAAAGCGCCAGAACUACAGAAAUGUAGUUGACGCGGAGGAGGUUUAUCUACUUUUCGGCGGAUGCCUCCAAA: in the series with glucosamine-6-phosphate [1], the “self-cleavage kobs at 640 uM GlcN6P” value is less than 1e-05 s⁻¹. Further, in the series with glucosamine-6-phosphate [2], the “self-cleavage kobs at 2500 uM GlcN6P” value is less than 1e-05 s⁻¹. For the same variant, the “self-cleavage kobs at 10000 uM GlcN6P” value in the series with glucosamine-6-phosphate [3] was less than 1e-05 s⁻¹. With AUAAAAGCGCGAGAACUACAGAAAUGUAGUGGACCAGGAGGAGGUUUAUCGAAUUUUCGGCGGAUGCCUCUAAA, in the series with glucosamine-6-phosphate [1], the “self-cleavage kobs at 640 uM GlcN6P” value is less than 1e-05 s⁻¹. In the series with glucosamine-6-phosphate [2], the “self-cleavage kobs at 2500 uM GlcN6P” value is less than 1e-05 s⁻¹.

Take AUAAAAGCGCCAGAACUACAGAAAUGUAGUUGACAAGGAGGAGGUUUAUGGAAUUUUCGGCGGAUGCUUGCAAA: the “self-cleavage kobs at 640 uM GlcN6P” value with glucosamine-6-phosphate [1] was 0.000738 ± 0.00024 s⁻¹. Besides, in the series with glucosamine-6-phosphate [2], the “self-cleavage kobs at 2500 uM GlcN6P” value amounted to 0.000111 ± 4.4e-05 s⁻¹. Take AUAAAAGCGCCAGAACUACAGAAAUGUAGUUGACGAGGAGGAGGUUCAUCGAAUUUUCGGCGGAUGCCGCCAAA: the “self-cleavage kobs at 640 uM GlcN6P” value in the series with glucosamine-6-phosphate [1] was 4.72e-05 ± 1.9e-05 s⁻¹. For the same variant, in the series with glucosamine-6-phosphate [2], the “self-cleavage kobs at 2500 uM GlcN6P” value is 0.000104 ± 2.3e-05 s⁻¹. Besides, the “self-cleavage kobs at 10000 uM GlcN6P” value with glucosamine-6-phosphate [3] is 6.08e-05 ± 1.5e-05 s⁻¹.

Turning to AUAAAAGCGCCAGAACUACAGAAAUGUAGUUAACGAGGCGGAGGUUUAUCGAAUUUUCAGCGGAUGACUCCAAA, the “self-cleavage kobs at 640 uM GlcN6P” value with glucosamine-6-phosphate [1] is less than 1e-05 s⁻¹. In addition, the “self-cleavage kobs at 2500 uM GlcN6P” value with glucosamine-6-phosphate [2] is less than 1e-05 s⁻¹. As for AUAAAAGCGCUAGAACUACAGAAAUGUACUAGAAGAGGAGGAGGUUUAUCGCAUUUUCGUCGGAUGCCUCCAAA, the “self-cleavage kobs at 640 uM GlcN6P” value with glucosamine-6-phosphate [1] was less than 1e-05 s⁻¹. In the series with glucosamine-6-phosphate [2], the “self-cleavage kobs at 2500 uM GlcN6P” value is less than 1e-05 s⁻¹. Consider AUAAAAUCGCCAGAACUACAGAAAUGUAGUUGACGAGGGGGAGGUUUUUCGAAUUUUCGGCGGAUGCCUCCAAA, for which, in the series with glucosamine-6-phosphate [1], the “self-cleavage kobs at 640 uM GlcN6P” value is less than 1e-05 s⁻¹. AUAAAAGCGCCAGACCUACAGAAAUGUAGUUGACGAGGAGGAGGUUUAUUAAAUUUUCGGCUGAUGCCCCCAAA: the “self-cleavage kobs at 640 uM GlcN6P” value with glucosamine-6-phosphate [1] turned out to be 3.56e-05 ± 1.7e-05 s⁻¹. On the same count and under the same terms, the same measure for AUAAAAGCGCCAGAACUACAGAAAUGUAGUUGACCAGAAGGAGGUUUAUCGAAUUUUCGGCGGAUGCGUCCAAA: 0.00152 ± 0.00066 s⁻¹. On to AUAAAAGCGCGAGAACUACAGAAAUGUAGUUGACGAGGAGGUGGUUUAUCUAAUUUUCGGCCGAUGCCUCCAAA, for which the “self-cleavage kobs at 640 uM GlcN6P” value in the series with glucosamine-6-phosphate [1] is less than 1e-05 s⁻¹. In the series with glucosamine-6-phosphate [2], the “self-cleavage kobs at 2500 uM GlcN6P” value was less than 1e-05 s⁻¹.

On to AUAAAAGCGCCAGAACUACAGAAAUGUAGUUGACGAGUAGGAGGUUUUUCGAAUUUUCGGGGGAUGCCUCUAAA, for which the “self-cleavage kobs at 640 uM GlcN6P” value in the series with glucosamine-6-phosphate [1] is less than 1e-05 s⁻¹. Same read-out and setting: the same measure for AUAAACGCACCAGAACUACAGAAAUGUAGUUGACGAAGAGGAGGUUUAUCCAAUUUUCGGCGGAUGCCUCCAAA: less than 1e-05 s⁻¹; for AUAAAAGCGCCAGAACUACAGAAAUGUAGUUGACGAGGAGGACGGUUAUCGAAUUUUCGGCGCAUGCCGCCAAA: less than 1e-05 s⁻¹.
